From patent US20240199740A1

Experiments:
[1] = molecular target: cynomolgus TCR/CD3 expressed on cells (cynomolgus); assay: cell-based or functional assay
[2] = molecular target: recombinant human CD123 protein (R&D Systems, 301-R3/CF) (human) (UniProt P26951); assay: ELISA, antibody 7G3 coated at 1 µg/ml, in house biotinylated recombinant CD123 titrated (concentration axis taken as CD123 per paragraph 750)
[3] = molecular target: recombinant human CD123 protein (R&D Systems, 301-R3/CF) (human) (UniProt P26951); assay: competition ELISA, coated antibody 7G3, 4 nM biotinylated recombinant CD123, antibody 7G3 in solution titrated

Sequence of recombinant human CD123 protein (R&D Systems, 301-R3/CF) (human) (P26951 19-305): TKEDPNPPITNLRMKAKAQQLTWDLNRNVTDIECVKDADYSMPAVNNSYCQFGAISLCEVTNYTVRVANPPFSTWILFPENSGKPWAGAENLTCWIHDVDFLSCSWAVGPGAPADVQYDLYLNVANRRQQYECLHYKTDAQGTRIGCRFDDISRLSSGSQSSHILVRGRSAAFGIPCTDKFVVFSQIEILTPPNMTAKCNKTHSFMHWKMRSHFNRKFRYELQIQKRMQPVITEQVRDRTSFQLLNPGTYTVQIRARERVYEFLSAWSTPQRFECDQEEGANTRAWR

B1: T017000135 (bispecific antibody)
chain: DVQLVESGGGLVQAGGPLRLSCAASGRTFSSYVMGWFRQAPGKEREFVAAIYWSNGKTQYTDSVKGRFTISGDNAKNTVYLQMNSLNPEDTAVYYCVADKDETGFRTLPIAYDYWGQGTLVTVSSGGGGSGGGGSGGGGSGGGGSGGGGSGGGGSGGGGSEVQLVESGGGLVQPGGSLRLSCVASGDVHKINFLGWYRQAPGKEREKVAHISIGDQTDYADSAKGRFTISRDESKNMVYLQMNSLKPEDTAVYFCRAFSRIYPYDYWGQGTLVTVSSGGGGSGGGGSGGGGSGGGGSGGGGSGGGGSGGGGSEVQLVESGGGLVQAGGSLRLSCAASGITSKINDMGWYRQTPGNYREWVASITATGTTNYRDSVKGRFTISRDNAKSTVYLQMNSLKPEDTTVYYCNTFPPISNFWGQGTLVTVSSA
Work on B1 yielded a % lysis, redirected cyno T cell mediated killing of KG1a cells, flow cytometry [1] of 22% and an EC50 (M), redirected cyno T cell mediated killing of KG1a cells, flow cytometry [1] of 2.4e-11 M.

B2: mouse monoclonal anti-CD123 antibody (clone 7G3) (antibody, from another filing, V domains shown)
VH: EVQLQQSGPELVKPGASVKMSCKASGYTFTDYYMKWVKQSHGKSLEWIGDIIPSNGATFYNQKFKGKATLTVDRSSSTAYMHLNSLTSEDSAVYYCTRSHLLRASWFAYWGQGTLVTVSA
VL: DFVMTQSPSSLTVTAGEKVTMSCKSSQSLLNSGNQKNYLTWYLQKPGQPPKLLIYWASTRESGVPDRFTGSGSGTDFTLTISSVQAEDLAVYYCQNDYSYPYTFGGGTKLEIK
With B2 the EC50 (read off the curve) [2] was 10 nM and the IC50 (read off the curve) [3] was 2 nM.
